According to patent publication US20070192880A1, “Horming response element binding transregulators” (UNIVERSITY OF ROCHESTER, priority 2003, published 2007):

Tests used:
[1] = test system: PRE 5′-AGAACAnnnTGTTCT-3′; assay: luciferase reporter bearing a single PRE, COS-1 cells; type: cell-based, African green monkey; settings: PR with 10^−8 M Progesterone
Procedure: (§1) An ERE drives the expression of the firefly luciferase cDNA as the reporter enzyme from the TATA box promoter. […] The reporter vector contains no (TATA) or two ERE half sites with 0, 1, 2, 3, 4, 5, 10 or 15 non-specific central nucleotides. FIGS. 4C and 4D show COS-1 cells were transfected with expression vectors bearing none (V), RXRα (Panel C) PR (Panel D), ERα, (VP16)2-CDC-(p65)2 or (p65)2-CDC-(VP16)2 cDNA. Cells were treated with 10^−6 M 9-cis-retinoic acid for RXRα, 10^−8 M Progesterone for PR or 10^−9 M E2 for ERα for 24 h. The TATA box reporter vector bears one consensus RXRE 5′-AGGTCAnAGGTCA-′3 (Panel C) or PRE 5′-AGAACAnnnTGTTCT-3′ (panel D) that drives the expression of the reporter firefly luciferase cDNA. Normalized luciferase values represented as fold change are the mean±SEM of three independent experiments performed in duplicate.
(§2) Culturing and transfection of the mammalian COS-1 and […] MDA-MB-231 cells were described previously (Muyan, M. et al. (2001) Mol Cell Endocrinol 182,249-263; Yi, P. et al. (2002) Mol Endocrinol 16, 1810-1827), with the exceptions that 48 well cell culture plates were used and Trans-IT LTI transfection reagent (Mirus Corp., Madison, Wis.). Luciferase assays were performed with a Dual Luciferase Assay kit (Promega) according to the manufacture's recornmendations. […]

[2] = test system: consensus RXRE 5′-AGGTCAnAGGTCA-3′; assay: luciferase reporter bearing one RXRE, COS-1 cells; type: cell-based, African green monkey; settings: RXRα with 10^−6 M 9-cis retinoic acid
Procedure: as §1, §2

| Molecule | reporter enzyme activity from a single PRE [1] | luciferase activity from a reporter plasmid bearing one RXRE [2] |
| --- | --- | --- |
| Progesterone Receptor (protein, UniProt P06401 1-933, looked up, expressed from vector, treated with Progesterone) Progesterone receptor: MTELKAKGPRAPHVAGGPPSPEVGSPLLCRPAAGPFPGSQTSDTLPEVSAIPISLDGLLFPRPCQGQDPSDEKTQDQQSLSDVEGAYSRAEATRGAGGSSSSPPEKDSGLLDSVLDTLLAPSGPGQSQPSPPACEVTSSWCLFGPELPEDPPAAPATQRVLSPLMSRSGCKVGDSSGTAAAHKVLPRGLSPARQLLLPASESPHWSGAPVKPSPQAAAVEVEEEDGSESEESAGPLLKGKPRALGGAAAGGGAAAVPPGAAAGGVALVPKEDSRFSAPRVALVEQDAPMAPGRSPLATTVMDFIHVPILPLNHALLAARTRQLLEDESYDGGAGAASAFAPPRSSPCASSTPVAVGDFPDCAYPPDAEPKDDAYPLYSDFQPPALKIKEEEEGAEASARSPRSYLVAGANPAAFPDFPLGPPPPLPPRATPSRPGEAAVTAAPASASVSSASSSGSTLECILYKAEGAPPQQGPFAPPPCKAPGASGCLLPRDGLPSTSASAAAAGAAPALYPALGLNGLPQLGYQAAVLKEGLPQVYPPYLNYLRPDSEASQSPQYSFESLPQKICLICGDEASGCHYGVLTCGSCKVFFKRAMEGQHNYLCAGRNDCIVDKIRRKNCPACRLRKCCQAGMVLGGRKFKKFNKVRVVRALDAVALPQPVGVPNESQALSQRFTFSPGQDIQLIPPLINLLMSIEPDVIYAGHDNTKPDTSSSLLTSLNQLGERQLLSVVKWSKSLPGFRNLHIDDQITLIQYSWMSLMVFGLGWRSYKHVSGQMLYFAPDLILNEQRMKESSFYSLCLTMWQIPQEFVKLQVSQEEFLCMKVLLLLNTIPLEGLRSQTQFEEMRSSYIRELIKAIGLRQKGVVSSSQRFYQLTKLLDNLHDLVKQLHLYCLNTFIQSRALSVEFPEMMSEVIAAQLPKILAGMVKPLLFHKK | enhanced the reporter enzyme activity |  |
| Retinoic X Receptor α (protein, UniProt P19793 1-462, looked up, treated with 9-cis retinoic acid, expressed from vector, treated with 9-cis retinoic acid) Retinoic acid receptor …: MDTKHFLPLDFSTQVNSSLTSPTGRGSMAAPSLHPSLGPGIGSPGQLHSPISTLSSPINGMGPPFSVISSPMGPHSMSVPTTPTLGFSTGSPQLSSPMNPVSSSEDIKPPLGLNGVLKVPAHPSGNMASFTKHICAICGDRSSGKHYGVYSCEGCKGFFKRTVRKDLTYTCRDNKDCLIDKRQRNRCQYCRYQKCLAMGMKREAVQEERQRGKDRNENEVESTSSANEDMPVERILEAELAVEPKTETYVEANMGLNPSSPNDPVTNICQAADKQLFTLVEWAKRIPHFSELPLDDQVILLRAGWNELLIASFSHRSIAVKDGILLATGLHVHRNSAHSAGVGAIFDRVLTELVSKMRDMQMDKTELGCLRAIVLFNPDSKGLSNPAEVEALREKVYASLEAYCKHKYPEQPGRFAKLLLRLPALRSIGLKCLEHLFFFKLIGDTPIDTFLMEMLEAPHQMT |  | augmented the enzyme activity |
